Laboratory results: patent US20250277018A1 (published 2025)

Columns and labels:
Human serum albumin = experiment: ELISA; pH 7.4
4A01v9 = experiment: ELISA
4A01v3-1 = experiment: ELISA
4A01v3-8 = experiment: ELISA
4A01v3-3 = experiment: ELISA
4A01v3-5 = experiment: ELISA
4A01v3-4 = experiment: ELISA
4A01v3-7 = experiment: ELISA
4A01v1 = experiment: ELISA
4A01v4 = experiment: ELISA
4A01v5 = experiment: ELISA
4A01v3 = experiment: ELISA
4A01v6 = experiment: ELISA
[1] = target: T1, Cynomolgus monkey serum albumin; experiment: ELISA
T1 chain: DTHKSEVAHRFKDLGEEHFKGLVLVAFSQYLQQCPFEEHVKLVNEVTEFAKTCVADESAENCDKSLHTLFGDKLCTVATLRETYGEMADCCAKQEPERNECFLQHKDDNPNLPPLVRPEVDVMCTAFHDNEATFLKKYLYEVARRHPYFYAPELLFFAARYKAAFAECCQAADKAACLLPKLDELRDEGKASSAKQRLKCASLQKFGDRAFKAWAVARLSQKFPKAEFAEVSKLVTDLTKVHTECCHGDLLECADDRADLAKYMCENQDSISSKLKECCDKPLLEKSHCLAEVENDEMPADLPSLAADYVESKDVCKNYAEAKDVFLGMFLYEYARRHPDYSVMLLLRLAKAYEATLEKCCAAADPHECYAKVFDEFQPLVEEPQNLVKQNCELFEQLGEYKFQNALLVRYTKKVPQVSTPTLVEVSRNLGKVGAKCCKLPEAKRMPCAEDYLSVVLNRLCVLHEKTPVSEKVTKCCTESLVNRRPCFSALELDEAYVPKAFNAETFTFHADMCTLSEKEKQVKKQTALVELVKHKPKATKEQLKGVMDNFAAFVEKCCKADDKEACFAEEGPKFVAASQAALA

Rat serum albumin = target: T2, Rat serum albumin; experiment: ELISA
T2 chain: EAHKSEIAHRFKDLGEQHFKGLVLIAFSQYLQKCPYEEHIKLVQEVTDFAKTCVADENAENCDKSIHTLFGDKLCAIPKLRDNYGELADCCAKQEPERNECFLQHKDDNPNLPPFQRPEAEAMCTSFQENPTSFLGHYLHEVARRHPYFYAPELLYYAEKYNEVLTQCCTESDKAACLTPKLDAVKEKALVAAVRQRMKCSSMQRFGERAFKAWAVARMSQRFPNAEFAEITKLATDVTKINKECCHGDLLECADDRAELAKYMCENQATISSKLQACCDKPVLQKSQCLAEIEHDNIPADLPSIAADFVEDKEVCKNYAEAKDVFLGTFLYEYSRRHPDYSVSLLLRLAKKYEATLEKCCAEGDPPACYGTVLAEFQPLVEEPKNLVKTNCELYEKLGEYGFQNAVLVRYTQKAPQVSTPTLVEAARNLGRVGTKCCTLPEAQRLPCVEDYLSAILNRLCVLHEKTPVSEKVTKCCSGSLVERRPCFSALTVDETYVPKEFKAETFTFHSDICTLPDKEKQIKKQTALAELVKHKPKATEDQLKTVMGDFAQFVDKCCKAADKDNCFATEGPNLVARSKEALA

Murine serum albumin = experiment: ELISA
Murine serum albumin, sequence (chain, as listed by the source): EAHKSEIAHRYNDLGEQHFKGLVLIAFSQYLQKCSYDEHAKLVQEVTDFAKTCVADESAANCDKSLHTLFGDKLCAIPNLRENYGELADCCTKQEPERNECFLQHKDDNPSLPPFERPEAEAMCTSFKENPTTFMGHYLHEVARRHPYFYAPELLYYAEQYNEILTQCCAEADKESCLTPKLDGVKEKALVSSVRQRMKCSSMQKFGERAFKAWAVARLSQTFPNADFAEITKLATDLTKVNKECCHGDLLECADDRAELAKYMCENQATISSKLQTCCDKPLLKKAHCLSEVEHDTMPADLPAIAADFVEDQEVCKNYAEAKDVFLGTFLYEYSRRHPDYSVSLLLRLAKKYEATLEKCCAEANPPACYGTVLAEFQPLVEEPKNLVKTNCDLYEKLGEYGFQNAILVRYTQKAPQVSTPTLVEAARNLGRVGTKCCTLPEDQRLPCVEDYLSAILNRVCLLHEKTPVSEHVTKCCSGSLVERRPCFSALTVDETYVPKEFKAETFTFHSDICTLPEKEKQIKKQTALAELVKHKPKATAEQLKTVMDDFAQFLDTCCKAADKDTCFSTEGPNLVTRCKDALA

B1: cx12584 (VHH)
chain: GGGGDKTHTCPPCPAPGGPSVFLFPPKPKDTLMISRTPEVTCVVVDVSHEDPEVKFNWYVDGVEVHNAKTKPREEQYNSTYRVVSVLTVLHQDWLNGKEYKCKVSNKALPAPIEKTISKAKGQPREPQVYTLPPSRDELTKNQVSLTCLVKGFYPSDIAVEWESNGQPENNYKTTPPVLDSDGSFFLYSKLTVDKSRWQQGNVFSCSVMHEALHNHYTQKSLSLSPGGGSGGGSGGGSEVQLVESGGGEVQPGGSLRLSCAASGFTFSTSGMVWVRQAPGKGLEWVSTISDDARITVYAESVKGRFTISRDNAKNTVYLQMNSLRAEDTAVYYCATYRAGSRIGSYEDYYRGQGTLVTVKP
Kd (Human serum albumin): 81.3 pM

B2: cy (other)
chain: DTHKSEVAHRFKDLGEEHFKGLVLVAFSQYLQQCPFEEHVKLVNEVTEFAKTCVADESAENCDKSLHTLFGDKLCTVATLRETYGEMADCCAKQEPERNECFLQHKDDNPNLPPLVRPEVDVMCTAFHDNEATFLKKYLYEVARRHPYFYAPELLFFAARYKAAFAECCQAADKAACLLPKLDELRDEGKASSAKQRLKCASLQKFGDRAFKAWAVARLSQKFPKAEFAEVSKLVTDLTKVHTECCHGDLLECADDRADLAKYMCENQDSISSKLKECCDKPLLEKSHCLAEVENDEMPADLPSLAADYVESKDVCKNYAEAKDVFLGMFLYEYARRHPDYSVMLLLRLAKAYEATLEKCCAAADPHECYAKVFDEFQPLVEEPQNLVKQNCELFEQLGEYKFQNALLVRYTKKVPQVSTPTLVEVSRNLGKVGAKCCKLPEAKRMPCAEDYLSVVLNRLCVLHEKTPVSEKVTKCCTESLVNRRPCFSALELDEAYVPKAFNAETFTFHADMCTLSEKEKQVKKQTALVELVKHKPKATKEQLKGVMDNFAAFVEKCCKADDKEACFAEEGPKFVAASQAALA
Kd (4A01v9): 117 pM | Kd (4A01v3-1): 127 pM | Kd (4A01v3-8): 147 pM | Kd (4A01v3-3): 142 pM | Kd (4A01v3-5): 126 pM | Kd (4A01v3-4): 181 pM | Kd (4A01v3-7): 118 pM | Kd (4A01v1): 157 pM | Kd (4A01v4): 247 pM | Kd (4A01v5): 203 pM | Kd (4A01v3): 338 pM | Kd (4A01v6): 225 pM

B3: cx12583 (VHH)
chain: GGGGDKTHTCPPCPAPGGPSVFLFPPKPKDTLMISRTPEVTCVVVDVSHEDPEVKFNWYVDGVEVHNAKTKPREEQYNSTYRVVSVLTVLHQDWLNGKEYKCKVSNKALPAPIEKTISKAKGQPREPQVYTLPPSRDELTKNQVSLTCLVKGFYPSDIAVEWESNGQPENNYKTTPPVLDSDGSFFLYSKLTVDKSRWQQGNVFSCSVMHEALHNHYTQKSLSLSPGSGGGSEVQLVESGGGEVQPGGSLRLSCAASGFTFSTSGMVWVRQAPGKGLEWVSTISDDARITVYAESVKGRFTISRDNAKNTVYLQMNSLRAEDTAVYYCATYRAGSRIGSYEDYYRGQGTLVTVKP
Kd (Human serum albumin): 126 pM

B4: cx5009, hz4A01v51 VHH-hIgG1-xELL-NNT-Fc (VHH)
VHH: EVQLVESGGGEVQPGGSLRLSCAASGFTFSTSGMVWVRQAPGKGLEWVSTISDDARITVYAESVKGRFTISRDNAKNTVYLQMNSLRAEDTAVYYCATYRAGSRIGSYEDYYRGQGTLVTVKP
Kd [1]: 189 pM | Kd (Rat serum albumin): 234 pM | Kd (Murine serum albumin): 207 pM

B5: cx12596 (bispecific antibody)
heavy: EVQLVESGGGLEQPGGSLRLSCAGSGFTFRDYAMTWVRQAPGKGLEWVSSISGSGGNTYYADSVKGRFTISRDNSKNTLYLQMNSLRAEDTAVYYCAKDRLSITIRPRYYGLDVWGQGTTVTVSSASTKGPSVFPLAPCSRSTSESTAALGCLVKDYFPEPVTVSWNSGALTSGVHTFPAVLQSSGLYSLSSVVTVPSSSLGTKTYTCNVDHKPSNTKVDKRVGGSGGSEVQLVESGGGEVQPGGSLRLSCAASGFTFSTSGMVWVRQAPGKGLEWVSTISDDARITVYAESVKGRFTISRDNAKNTVYLQMNSLRAEDTAVYYCATYRAGSRIGSYEDYYRGQGTLVTVKPGGGGDKTHTCPPCPAPGGPSVFLFPPKPKDTLMISRTPEVTCVVVDVSHEDPEVKFNWYVDGVEVHNAKTKPREEQYNSTYRVVSVLTVLHQDWLNGKEYKCKVSNKALPAPIEKTISKAKGQPREPQVYTLPPSRDELTKNQVSLTCLVKGFYPSDIAVEWESNGQPENNYKTTPPVLDSDGSFFLYSKLTVDKSRWQQGNVFSCSVMHEALHNHYTQKSLSLSP
light: DIVMTQSPLSLPVTPGEPASISCRSSQSLLYSIGYNYLDWYLQKSGQSPQLLIYLGSNRASGVPDRFSGSGSGTDFTLKISRVEAEDVGFYYCMQALQTPYTFGQGTKLEIKRTVAAPSVFIFPPSDEQLKSGTASVVCLLNNFYPREAKVQWKVDNALQSGNSQESVTEQDSKDSTYSLSSTLTLSKADYEKHKVYACEVTHQGLSSPVTKSENRGEC
Kd (Human serum albumin): 12.2 pM

B6: cx12595 (bispecific antibody)
heavy: EVQLVESGGGLEQPGGSLRLSCAGSGFTFRDYAMTWVRQAPGKGLEWVSSISGSGGNTYYADSVKGRFTISRDNSKNTLYLQMNSLRAEDTAVYYCAKDRLSITIRPRYYGLDVWGQGTTVTVSSASTKGPSVFPLAPCSRSTSESTAALGCLVKDYFPEPVTVSWNSGALTSGVHTFPAVLQSSGLYSLSSVVTVPSSSLGTKTYTCNVDHKPSNTKVDKRVGGSGGSEVQLVESGGGEVQPGGSLRLSCAASGFTFSTSGMVWVRQAPGKGLEWVSTISDDARITVYAESVKGRFTISRDNAKNTVYLQMNSLRAEDTAVYYCATYRAGSRIGSYEDYYRGQGTLVTVKPGGGGESKYGPPCPPCPAPEFLGGPSVFLFPPKPKDTLYISRTPEVTCVVVDVSQEDPEVQFNWYVDGVEVHNAKTKPREEQFNSTYRVVSVLTVLHQDWLNGKEYKCKVSNKGLPSSIEKTISKAKGQPREPQVYTLPPSQEEMTKNQVSLTCLVKGFYPSDIAVEWESNGQPENNYKTTPPVLDSDGSFFLYSRLTVDKSRWQEGNVFSCSVVHEALHNHYTQKSLSLSLG
light: DIVMTQSPLSLPVTPGEPASISCRSSQSLLYSIGYNYLDWYLQKSGQSPQLLIYLGSNRASGVPDRFSGSGSGTDFTLKISRVEAEDVGFYYCMQALQTPYTFGQGTKLEIKRTVAAPSVFIFPPSDEQLKSGTASVVCLLNNFYPREAKVQWKVDNALQSGNSQESVTEQDSKDSTYSLSSTLTLSKADYEKHKVYACEVTHQGLSSPVTKSENRGEC
Kd (Human serum albumin): 32.6 pM

B7: cx12594 (bispecific antibody)
heavy: EVQLVESGGGLEQPGGSLRLSCAGSGFTFRDYAMTWVRQAPGKGLEWVSSISGSGGNTYYADSVKGRFTISRDNSKNTLYLQMNSLRAEDTAVYYCAKDRLSITIRPRYYGLDVWGQGTTVTVSSASTKGPSVFPLAPCSRSTSESTAALGCLVKDYFPEPVTVSWNSGALTSGVHTFPAVLQSSGLYSLSSVVTVPSSSLGTKTYTCNVDHKPSNTKVDKRVESKYGPPCPPCPAPEFLGGPSVFLFPPKPKDTLYISRTPEVTCVVVDVSQEDPEVQFNWYVDGVEVHNAKTKPREEQFNSTYRVVSVLTVLHQDWLNGKEYKCKVSNKGLPSSIEKTISKAKGQPREPQVYTLPPSQEEMTKNQVSLTCLVKGFYPSDIAVEWESNGQPENNYKTTPPVLDSDGSFFLYSRLTVDKSRWQEGNVFSCSVVHEALHNHYTQKSLSLSLGGSGGSEVQLVESGGGEVQPGGSLRLSCAASGFTFSTSGMVWVRQAPGKGLEWVSTISDDARITVYAESVKGRFTISRDNAKNTVYLQMNSLRAEDTAVYYCATYRAGSRIGSYEDYYRGQGTLVTVKP
light: DIVMTQSPLSLPVTPGEPASISCRSSQSLLYSIGYNYLDWYLQKSGQSPQLLIYLGSNRASGVPDRFSGSGSGTDFTLKISRVEAEDVGFYYCMQALQTPYTFGQGTKLEIKRTVAAPSVFIFPPSDEQLKSGTASVVCLLNNFYPREAKVQWKVDNALQSGNSQESVTEQDSKDSTYSLSSTLTLSKADYEKHKVYACEVTHQGLSSPVTKSENRGEC
Kd (Human serum albumin): 118 pM
